# Experimental data: US20240166739A1 (KISOJI BIOTECHNOLOGY, published 2024)
# B1: KC036 (PD-1-specific binding agent; HEWL; PD1; HEWL) (Fc fusion)
# chain: QVQLVESGGGSVQAGGSLRLSCAASGSTDSIEYMTWFRQAPGKAREGVAALYTHTGNTYYTDSVKGRFTISQDKAKNMAYLRMDSVKSEDTAIYTCGATRKYVPVRFALDQSSYDYWGQGTQVTVSSEPKSCDKTHTCPPCPAPELLGGPSVFLFPPKPKDTLMISRTPEVTCVVVDVSHEDPEVKFNWYVDGVEVHNAKTKPREEQYNSTYRVVSVLTVLHQDWLNGKEYKCKVSNKALPAPIEKTISKAKGQPREPQVYTLPPSREQMTKNQVSLTCLVKGFYPSDIAVEWESNGQPENNYKTTPPVLNSDGSFFLYSKLTVDKSRWQQGNVFSCSVMHEALHNHYTQESLSLSPGKAPAPAPAPAPKAQVQLQESGGGWVQPGGSLRLSCVASGFTFSRSSMSWHRQAPGKERDLVAIISSSGIITHYSDSVKGRFTISRDNAKDTVYLQMNSLKPEDTAVYVCNAVLDDDSGDYWGQGTQVTVSSGGGGSGGGGSGGGGSQVQLVESGGGSVQAGGSLRLSCAASGSTDSIEYMTWFRQAPGKAREGVAALYTHTGNTYYTDSVKGRFTISQDKAKNMAYLRMDSVKSEDTAIYTCGATRKYVPVRFALDQSSYDYWGQGTQVTVSS
# notes: Anti-HEWL VHH - IgG1 hinge-CH2-mutated CH3 - rigid linker - KC009 anti-PD-1 VHH - (G4S)3 - anti-HEWL VHH; expressed as dimer; may comprise a His-tag or not
# B2: KC035 (HEWL; HEWL; HEWL negative control binding agent) (Fc fusion)
# chain: QVQLVESGGGSVQAGGSLRLSCAASGSTDSIEYMTWFRQAPGKAREGVAALYTHTGNTYYTDSVKGRFTISQDKAKNMAYLRMDSVKSEDTAIYTCGATRKYVPVRFALDQSSYDYWGQGTQVTVSSEPKSCDKTHTCPPCPAPELLGGPSVFLFPPKPKDTLMISRTPEVTCVVVDVSHEDPEVKFNWYVDGVEVHNAKTKPREEQYNSTYRVVSVLTVLHQDWLNGKEYKCKVSNKALPAPIEKTISKAKGQPREPQVYTLPPSREQMTKNQVSLTCLVKGFYPSDIAVEWESNGQPENNYKTTPPVLNSDGSFFLYSKLTVDKSRWQQGNVFSCSVMHEALHNHYTQESLSLSPGKAPAPAPAPAPKAQVQLVESGGGSVQAGGSLRLSCAASGSTDSIEYMTWFRQAPGKAREGVAALYTHTGNTYYTDSVKGRFTISQDKAKNMAYLRMDSVKSEDTAIYTCGATRKYVPVRFALDQSSYDYWGQGTQVTVSSGGGGSGGGGSGGGGSQVQLVESGGGSVQAGGSLRLSCAASGSTDSIEYMTWFRQAPGKAREGVAALYTHTGNTYYTDSVKGRFTISQDKAKNMAYLRMDSVKSEDTAIYTCGATRKYVPVRFALDQSSYDYWGQGTQVTVSS
# notes: Three anti-HEWL VHHs in the VHH-Fc-VHH-VHH format; negative control for KC036
# What was measured:
# [1] = target: T1, recombinant human PD-1 protein (human, UniProt Q15116 25-167); experiment: ELISA on coated recombinant PD-1 (FIG. 9A)
# T1 construct: Bought protein; also called human recombinant PD1 protein; PD-1 recombinant protein
# Experimental: (§1) The binding of binding agents comprising anti-PD-1 and -CD47 antigen binding domain to recombinant human or cynomolgous PD-1 (Cedarlane, Cat. No. HPLC-10377-H08H-100) or recombinant human or cynomolgous CD47 (Cedarlane, Cat. No. 12283-H08H-200 and 90869-C08H) was assessed by ELISA (FIG. 9A, FIG. 9B, FIG. 9C, FIG. 9D, FIG. 22, FIG. 23). […] The monoclonal anti-CD47 antibody (clone B6H12) was used as a positive control in CD47 binding assays (Biolegend, Cat. No. 401401).
# (§2) Briefly, recombinant proteins were coated on 96-well plates. Plates were covered and left at 4° C. overnight. The next day, plates were washed once with PBS and blocked with blocking buffer for 1 hour at room temperature. Binding agents were tested at the indicated concentration, diluted in the blocking buffer, and incubated for 1 hour at 37° C. After incubation, plates were washed three times with washing buffer. Plates were incubated with anti-human-Fc-HRP (Sigma-Aldrich, Cat. No. APi 13P) diluted at 1:5000 for 1 hour at room temperature, then washed three times with PBS-T washing buffer. The signal was developed with SuperSignal™ ELISA Pico Chemiluminescent Substrate (Thermofisher, Cat. No. 37069). The plates were read on a SpectraMax™ i3x Multi-Mode Microplate Reader (Molecular Devices).
# [2] = target: T2, human PD-1 on CHO-PD1 cells (human, UniProt Q15116 25-288); experiment: Flow cytometry, 20 µg/mL, CHO-PD1 against CHO parental cells (FIG. 10)
# T2 construct: whole, on cells; also called CHO-PD-1 cell line
# Experimental: The binding of binding agents to cells was assessed by flow cytometry. […] Binding agents comprising anti-PD-1 antigen binding domain, were diluted in FACS staining buffer to 20 μg/mL and added and incubated with cells for 30 minutes on ice. The PD-1 antibody (clone EH12.2H7, Biolegend) was used as a positive control.
# [3] = target: T1, recombinant human PD-1 protein; experiment: ELISA on coated recombinant PD-1, anti-human-Fc-HRP detection
# Experimental: as §1, §2
# T1 sequence (Q15116 25-167 limits assumed): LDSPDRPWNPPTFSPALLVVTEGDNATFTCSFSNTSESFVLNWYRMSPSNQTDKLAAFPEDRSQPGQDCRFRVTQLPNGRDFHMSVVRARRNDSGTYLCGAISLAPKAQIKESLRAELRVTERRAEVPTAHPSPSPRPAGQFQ
# T2 sequence (Q15116 25-288): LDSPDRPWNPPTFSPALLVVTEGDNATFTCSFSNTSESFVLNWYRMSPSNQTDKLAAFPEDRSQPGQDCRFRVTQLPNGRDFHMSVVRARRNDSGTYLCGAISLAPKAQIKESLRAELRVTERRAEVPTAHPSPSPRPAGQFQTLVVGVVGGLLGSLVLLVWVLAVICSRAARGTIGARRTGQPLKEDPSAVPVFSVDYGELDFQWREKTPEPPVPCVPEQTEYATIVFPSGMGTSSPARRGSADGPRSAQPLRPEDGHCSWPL
binder,measurement,setting,value
B1,binding result,[1],binds
same,binding result,[2],binds
B2,binding result,[3],no binding
